Data as given in publication PMC4102767.

Legend:
Dpb11 [1] = biological target: Dpb11 (UniProt P47027); experiment: Flag purification, SILAC quantitative MS; conditions: reference: wild type; sites S486
Dpb11 [2] = biological target: Dpb11 (UniProt P47027); experiment: anti-Flag co-IP, Western blot; conditions: reference: wild type (undamaged or MMS); sites S486

Slx4 (from UniProt Q12098) S486A
fold change (Dpb11 [1]): weaker

Slx4 (from UniProt Q12098) S486A (undamaged or MMS)
binding against the reference (Dpb11 [2]): weaker
